From the supplement of paper PMC5998384

How the values were obtained:
HeLa Kyoto [1] = experiment: solubility change mitosis vs G1/S (difference of NP-40 vs SDS log2 ratios) (log2 ratio difference); higher = more soluble in mitosis
HeLa Kyoto [2] = experiment: solubility in G1/S (NP-40 vs SDS abundance) (log2 ratio); higher = more soluble; conditions: cell cycle stage: G1/S
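For solubility change mitosis vs G1/S (difference of NP-40 vs SDS log2 ratios) in this document: synchronized HeLa Kyoto cells (double thymidine block for G1/S, nocodazole release for mitosis), protein amounts in NP-40 versus SDS lysates quantified by mass spectrometry, three biological replicates.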
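For solubility in G1/S (NP-40 vs SDS abundance) in this document: HeLa Kyoto cells arrested at G1/S by double thymidine block, proteins quantified by TMT10plex mass spectrometry in mild NP-40 versus SDS extracts, three biological replicates.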

Substance: MAGAGGQHHPPGAAGGAAAGAGAAVTSAAASAGPGEDSSDSEAEQEGPQKLIRKVSTSGQIRTKTSIKEGQLLKQTSSFQRWKKRYFKLRGRTLYYAKDSKSLIFDEVDLSDASVAEASTKNANNSFTIITPFRRLMLCAENRKEMEDWISSLKSVQTREPYEVAQFNVEHFSGMHNWYACSHARPTFCNVCRESLSGVTSHGLSCEVCKFKAHKRCAVRATNNCKWTTLASIGKDIIEDEDGVAMPHQWLEGNLPVSAKCAVCDKTCGSVLRLQDWKCLWCKTMVHTACKDLYHPICPLGQCKVSIIPPIALNSTDSDGFCRATFSFCVSPLLVFVNSKSGDNQGVKFLRRFKQLLNPAQVFDLMNGGPHLGLRLFQKFDNFRILVCGGDGSVGWVLSEIDKLNLNKQCQLGVLPLGTGNDLARVLGWGGSYDDDTQLPQILEKLERASTKMLDRWSIMTYELKLPPKASLLPGPPEASEEFYMTIYEDSVATHLTKILNSDEHAVVISSAKTLCETVKDFVAKVEKTYDKTLENAVVADAVASKCSVLNEKLEQLLQALHTDSQAAPVLPGLSPLIVEEDAVESSSEESLGESKEQLGDDVTKPSSQKAVKPREIMLRANSLKKAVRQVIEEAGKVMDDPTVHPCEPANQSSDYDSTETDESKEEAKDDGAKESITVKTAPRSPDARASYGHSQTDSVPGPAVAASKENLPVLNTRIICPGLRAGLAASIAGSSIINKMLLANIDPFGATPFIDPDLDSVDGYSEKCVMNNYFGIGLDAKISLEFNNKREEHPEKCRSRTKNLMWYGVLGTRELLQRSYKNLEQRVQLECDGQYIPLPSLQGIAVLNIPSYAGGTNFWGGTKEDDIFAAPSFDDKILEVVAIFDSMQMAVSRVIKLQHHRIAQCRTVKITIFGDEGVPVQVDGEAWVQPPGIIKIVHKNRAQMLTRDRAFESTLKSWEDKQKCDSGKPVLRTHLYIHHAIDLATEEVSQMQLCSQAAEELITRICDAATIHCLLEQELAHAVNACSHALNKANPRCPESLTRDTATEIAINVKALYNETESLLVGRVPLQLESPHEERVSNALHSVEVELQKLTEIPWLYYILHPNEDEEPPMDCTKRNNRSTVFRIVPKFKKEKVQKQKTSSQPVQKWGTEEVAAWLDLLNLGEYKDIFIRHDIRGAELLHLERRDLKDLGIPKVGHVKRILQGIKELGRSTPQSEV [DGKH]
- solubility change mitosis (log2) (HeLa Kyoto [1]): 0.0195
- solubility in G1/S (log2) (HeLa Kyoto [2]): -0.212

Substance: MSGEPELIELRELAPAGRAGKGRTRLERANALRIARGTACNPTRQLVPGRGHRFQPAGPATHTWCDLCGDFIWGVVRKGLQCARLSADCKFTCHYRCRALVCLDCCGPRDLGWEPAVERDTNVDEPVEWETPDLSQAEIEQKIKEYNAQINSNLFMSLNKDGSYTGFIKVQLKLVRPVSVPSSKKPPSLQDARRGPGRGTSVRRRTSFYLPKDAVKHLHVLSRTRAREVIEALLRKFLVVDDPRKFALFERAERHGQVYLRKLLDDEQPLRLRLLAGPSDKALSFVLKENDSGEVNWDAFSMPELHNFLRILQREEEEHLRQILQKYSYCRQKIQEALHACPLG [RASSF1]
- solubility change mitosis (log2) (HeLa Kyoto [1]): 0.0429
- solubility in G1/S (log2) (HeLa Kyoto [2]): 0.0141

Substance: MRLRNGTFLTLLLFCLCAFLSLSWYAALSGQKGDVVDVYQREFLALRDRLHAAEQESLKRSKELNLVLDEIKRAVSERQALRDGDGNRTWGRLTEDPRLKPWNGSHRHVLHLPTVFHHLPHLLAKESSLQPAVRVGQGRTGVSVVMGIPSVRREVHSYLTDTLHSLISELSPQEKEDSVIVVLIAETDSQYTSAVTENIKALFPTEIHSGLLEVISPSPHFYPDFSRLRESFGDPKERVRWRTKQNLDYCFLMMYAQSKGIYYVQLEDDIVAKPNYLSTMKNFALQQPSEDWMILEFSQLGFIGKMFKSLDLSLIVEFILMFYRDKPIDWLLDHILWVKVCNPEKDAKHCDRQKANLRIRFKPSLFQHVGTHSSLAGKIQKLKDKDFGKQALRKEHVNPPAEVSTSLKTYQHFTLEKAYLREDFFWAFTPAAGDFIRFRFFQPLRLERFFFRSGNIEHPEDKLFNTSVEVLPFDNPQSDKEALQEGRTATLRYPRSPDGYLQIGSFYKGVAEGEVDPAFGPLEALRLSIQTDSPVWVILSEIFLKKAD [MGAT4B]
- solubility change mitosis (log2) (HeLa Kyoto [1]): -0.107
- solubility in G1/S (log2) (HeLa Kyoto [2]): 0.0108

Substance: MLQKPRNRGRSGGQAERDRDWSHSGNPGASRAGEDARVLRDGFAEEAPSTSRGPGGSQGSQGPSPQGARRAQAAPAVGPRSQKQLELKVSELVQFLLIKDQKKIPIKRADILKHVIGDYKDIFPDLFKRAAERLQYVFGYKLVELEPKSNTYILINTLEPVEEDAEMRGDQGTPTTGLLMIVLGLIFMKGNTIKETEAWDFLRRLGVYPTKKHLIFGDPKKLITEDFVRQRYLEYRRIPHTDPVDYEFQWGPRTNLETSKMKVLKFVAKVHNQDPKDWPAQYCEALADEENRARPQPSGPAPSS [NDNL2]
- solubility change mitosis (log2) (HeLa Kyoto [1]): 0.116
- solubility in G1/S (log2) (HeLa Kyoto [2]): 0.289

Substance: MEFLLGNPFSTPVGQCLEKATDGSLQSEDWTLNMEICDIINETEEGPKDAIRALKKRLNGNRNYREVMLALTVLETCVKNCGHRFHILVANRDFIDSVLVKIISPKNNPPTIVQDKVLALIQAWADAFRSSPDLTGVVHIYEELKRKGVEFPMADLDALSPIHTPQRSVPEVDPAATMPRSQSQQRTSAGSYSSPPPAPYSAPQAPALSVTGPITANSEQIARLRSELDVVRGNTKVMSEMLTEMVPGQEDSSDLELLQELNRTCRAMQQRIVELISRVSNEEVTEELLHVNDDLNNVFLRYERFERYRSGRSVQNASNGVLNEVTEDNLIDLGPGSPAVVSPMVGNTAPPSSLSSQLAGLDLGTESVSGTLSSLQQCNPRDGFDMFAQTRGNSLAEQRKTVTYEDPQAVGGLASALDNRKQSSEGIPVAQPSVMDDIEVWLRTDLKGDDLEEGVTSEEFDKFLEERAKAAEMVPDLPSPPMEAPAPASNPSGRKKPERSEDALFAL [TOM1L2]
- solubility change mitosis (log2) (HeLa Kyoto [1]): -0.0085
- solubility in G1/S (log2) (HeLa Kyoto [2]): 0.292

Substance: MKALIVLGLVLLSVTVQGKVFERCELARTLKRLGMDGYRGISLANWMCLAKWESGYNTRATNYNAGDRSTDYGIFQINSRYWCNDGKTPGAVNACHLSCSALLQDNIADAVACAKRVVRDPQGIRAWVAWRNRCQNRDVRQYVQGCGV [LYZ]
- solubility change mitosis (log2) (HeLa Kyoto [1]): 2.19
- solubility in G1/S (log2) (HeLa Kyoto [2]): -1.78

Substance: MKRHRPVSSSDSSDESPSTSFTSGSMYRIKSKIPNEHKKPAEVFRKDLISAMKLPDSHHINPDSYYLFADTWKEEWEKGVQVPASPDTVPQPSLRIIAEKVKDVLFIRPRKYIHCSSPDTTEPGYINIMELAASVCRYDLDDMDIFWLQELNEDLAEMGCGPVDENLMEKTVEVLERHCHENMNHAIETEEGLGIEYDEDVICDVCRSPDSEEGNDMVFCDKCNVCVHQACYGILKVPEGSWLCRSCVLGIYPQCVLCPKKGGALKTTKTGTKWAHVSCALWIPEVSIACPERMEPITKISHIPPSRWALVCNLCKLKTGACIQCSIKSCITAFHVTCAFEHGLEMKTILDEGDEVKFKSYCLKHSQNRQKLGEAEYPHHRAKEQSQAKSEKTSLRAQKLRELEEEFYSLVRVEDVAAELGMPTLAVDFIYNYWKLKRKSNFNKPLFPPKEDEENGLVQPKEESIHTRMRMFMHLRQDLERVRNLCYMISRREKLKLSHNKIQEQIFGLQVQLLNQEIDAGLPLTNALENSLFYPPPRITLKLKMPKSTPEDHRNSSTETDQQPHSPDSSSSVHSIRNMQVPQESLEMRTKSYPRYPLESKNNRLLASLSHSRSEAKESSPAWRTPSSECYHGQSLGKPLVLQAALHGQSSIGNGKSQPNSKFAKSNGLEGSWSGNVTQKDSSSEMFCDQEPVFSPHLVSQGSFRKSTVEHFSRSFKETTNRWVKNTEDLQCYVKPTKNMSPKEQFWGRQVLRRSAGRAPYQENDGYCPDLELSDSEAESDGNKEKVRVRKDSSDRENPPHDSRRDCHGKSKTHPLSHSSMQR [JADE3]
- solubility change mitosis (log2) (HeLa Kyoto [1]): 0.383
- solubility in G1/S (log2) (HeLa Kyoto [2]): -0.949

Substance: MAREPRKNAALDAQSAEDQTGLLTVKVEKEEASALTAEVRAPCSPARGPERSRQRFRGFRYPEAAGPREALSRLRELCGQWLQPEMHSKEQILELLVLEQFLTILPGNLQSWVREQHPESGEEVVVLLEYLERQLDEPAPQVPVGDQGQELLCCKMALLTQTQGSQSSQCQPMKALFKHESLGSQPLHDRVLQVPGLAQGGCCREDAMVASRLTPGSQGLLKMEDVALTLTPGWTQLDSSQVNLYRDEKQENHSSLVSLGGEIQTKSRDLPPVKKLPEKEHGKICHLREDIAQIPTHAEAGEQEGRLQRKQKNAIGSRRHYCHECGKSFAQSSGLTKHRRIHTGEKPYECEDCGKTFIGSSALVIHQRVHTGEKPYECEECGKVFSHSSNLIKHQRTHTGEKPYECDDCGKTFSQSCSLLEHHKIHTGEKPYQCNMCGKAFRRNSHLLRHQRIHGDKNVQNPEHGESWESQGRTESQWENTEAPVSYKCNECERSFTRNRSLIEHQKIHTGEKPYQCDTCGKGFTRTSYLVQHQRSHVGKKTLSQ [ZKSCAN4]
- solubility change mitosis (log2) (HeLa Kyoto [1]): 0.361
- solubility in G1/S (log2) (HeLa Kyoto [2]): -0.299

Substance: MATVLSRALKLPGKKSPDLGEYDPLTQADSDESEDDLVLNLQKNGGVKNGKSPLGEAPEPDSDAEVAEAAKPHLSEVTTEGYPSEPLGGLEQKAASSLVSYVRTSVFLLTLGISMILVLLCAFLIPCPPRDLHSTWSRHLGSQGGGDLSPLELADVNGDGLRDVLLSFVMSRNGSAVGVSRPAANLVCLSGMNGSTLWSSLLPEEARDITCLELMPGSLAETICLVTGTHKMLSAFNATSGKAIWTLNPNYLSNGTLAAPVVVLPDLDEDGVRDLVVLAIGELQPDLCFLLVSGRTGNPVGRPVKYNIVGVGNLIGPQVYITTNGAVYILFGFGNIQAVALRDIFVQAQNRDSSPPSLQIEEPEWEKRRSINLSELIDVYSDGVELLQMVKAPDSNCSNLLITTRQSLVLLRGQNLTPYWALRLQGLRSQPTPGYFTDDQTLDFLLQIQDGVGMKKMMVVDGDSGSIVWSYRAPCHMKETPATSAVTSDQKSVFLFWAEGLSAASPNSDIILGTEPPSLHHLYLLHPAFPSILLDLANTTGTVTASEVGINDLWKDAFYVTRTTGPSSEGHPAALVVSKLSLRWALMEGQMAQLQESTPKIGRGELRRFLSRIKFVEAPYEI [KIAA1467]
- solubility change mitosis (log2) (HeLa Kyoto [1]): -0.0551
- solubility in G1/S (log2) (HeLa Kyoto [2]): 0.0831

Substance: MESTPSRGLNRVHLQCRNLQEFLGGLSPGVLDRLYGHPATCLAVFRELPSLAKNWVMRMLFLEQPLPQAAVALWVKKEFSKAQEESTGLLSGLRIWHTQLLPGGLQGLILNPIFRQNLRIALLGGGKAWSDDTSQLGPDKHARDVPSLDKYAEERWEVVLHFMVGSPSAAVSQDLAQLLSQAGLMKSTEPGEPPCITSAGFQFLLLDTPAQLWYFMLQYLQTAQSRGMDLVEILSFLFQLSFSTLGKDYSVEGMSDSLLNFLQHLREFGLVFQRKRKSRRYYPTRLAINLSSGVSGAGGTVHQPGFIVVETNYRLYAYTESELQIALIALFSEMLYRFPNMVVAQVTRESVQQAIASGITAQQIIHFLRTRAHPVMLKQTPVLPPTITDQIRLWELERDRLRFTEGVLYNQFLSQVDFELLLAHARELGVLVFENSAKRLMVVTPAGHSDVKRFWKRQKHSS [GTF2H4]
- solubility change mitosis (log2) (HeLa Kyoto [1]): 0.00292
- solubility in G1/S (log2) (HeLa Kyoto [2]): -0.135

Substance: DDX60
- solubility change mitosis (log2) (HeLa Kyoto [1]): -0.0365
- solubility in G1/S (log2) (HeLa Kyoto [2]): -0.517

Substance: MLEPQENGVIDLPDYEHVEDETFPPFPPPASPERQDGEGTEPDEESGNGAPVRVPPKRTVKRNIPKLDAQRLISERGLPALRHVFDKAKFKGKGHEAEDLKMLIRHMEHWAHRLFPKLQFEDFIDRVEYLGSKKEVQTCLKRIRLDLPILHEDFVSNNDEVAENNEHDVTSTELDPFLTNLSESEMFASELSRSLTEEQQQRIERNKQLALERRQAKLLSNSQTLGNDMLMNTPRAHTVEEVNTDEDQKEESNGLNEDILDNPCNDAIANTLNEEETLLDQSFKNVQQQLDATSRNITEAR [TIPIN]
- solubility change mitosis (log2) (HeLa Kyoto [1]): 0.273
- solubility in G1/S (log2) (HeLa Kyoto [2]): 0.321

Substance: ATG2A
- solubility change mitosis (log2) (HeLa Kyoto [1]): -0.036
- solubility in G1/S (log2) (HeLa Kyoto [2]): -0.135
